Among the data in patent US20210388110A1 (published 2021) are Kd values, retold here.

In this assay the target is T1, soluble human CD3ε chain (human, UniProt P07766 23-126, limits assumed).
T1 construct: also called human CD3 epsilon chain
Put plainly: SPR (Biacore), soluble human CD3ε chain. A general note: SPR reads the build-up and loss of mass on a sensor chip optically.

T1 sequence (P07766 23-126 limits assumed): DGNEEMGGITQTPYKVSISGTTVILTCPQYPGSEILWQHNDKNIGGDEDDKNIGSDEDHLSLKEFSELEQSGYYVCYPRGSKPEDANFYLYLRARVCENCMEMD

B1: TR01H082-E22Hh/none-Hi-Kn010G3/L0270-k0 (antibody, human IgG1, kappa, L234A L235A, N297A)
heavy: QVQLVESGGGLVQPGRSLRLSCAASGFTFSNAWMHWVRQAPGKGLEWVAQIKDKSQNYATYYAESVKGRFTISRDDSKNSLYLQMNSLKTEDTAVYYCRYVHYAAGYGVDAWGQGTTVTVSSASTKGPSVFPLAPSSKSTSGGTAALGCLVKDYFPEPVTVSWNSGALTSGVHTFPAVLQSSGLYSLSSVVTVPSSSLGTQTYICNVNHKPSNTKVDKKVEPKSCDKTHTCPPCPAPEAAGGPSVFLFPPKPKDTLMISRTPEVTCVVVDVSHEDPEVKFNWYVDGVEVHNAKTKPREEQYASTYRVVSVLTVLHQDWLNGKEYKCKVSNKALPAPIEKTISKAKGQPREPQVYTLPPSRCELTKNQVSLSCAVKGFYPSDIAVEWESNGQPENNYKTTPPVLDSDGSFFLVSKLTVDKSRWQQGNVFSCSVMHEALHNHYTQKSLSLSPDYKDDDDK
chain: EPKSSDKTHTCPPCPAPELLGGPSVFLFPPKPKDTLMISRTPEVTCVVVDVSHEDPEVKFNWYVDGVEVHNAKTKPREEQYNSTYRVVSVLTVLHQDWLNGKEYKCKVSNKALPAPIEKTISKAKGQPREPQVCTLPPSRDELTKNQVSLWCLVKGFYPSDIAVEWESNGQPENNYKTTPPVLDSDGSFFLYSKLTVDKSRWQQGNVFSCSVMHEALHNRYTQKSLSLSP
light: DIVMTQSPLSLPVTPGEPASISCRSSQSLVHSNRQTYLHWYQQKPGQAPRLLIYKVSNRFSGVPDRFSGSGSGTDFTLKISRVEAEDVGVYYCGQGTQVPYTFGQGTKLEIKRTVAAPSVFIFPPSDEQLKSGTASVVCLLNNFYPREAKVQWKVDNALQSGNSQESVTEQDSKDSTYSLSSTLTLSKADYEKHKVYACEVTHQGLSSPVTKSFNRGEC
notes: one-arm antibody (single Fab) with Fab-less hinge-Fc chain Hi-Kn010G3
On to B1, for which the Kd was determined as 74.2 nM. That is a double-digit nanomolar value.

B2: TR01H082-E22Hh/none-Hi-Kn010G3/TR01L017-k0 (antibody, human IgG1, kappa, L234A L235A, N297A)
heavy: QVQLVESGGGLVQPGRSLRLSCAASGFTFSNAWMHWVRQAPGKGLEWVAQIKDKSQNYATYYAESVKGRFTISRDDSKNSLYLQMNSLKTEDTAVYYCRYVHYAAGYGVDAWGQGTTVTVSSASTKGPSVFPLAPSSKSTSGGTAALGCLVKDYFPEPVTVSWNSGALTSGVHTFPAVLQSSGLYSLSSVVTVPSSSLGTQTYICNVNHKPSNTKVDKKVEPKSCDKTHTCPPCPAPEAAGGPSVFLFPPKPKDTLMISRTPEVTCVVVDVSHEDPEVKFNWYVDGVEVHNAKTKPREEQYASTYRVVSVLTVLHQDWLNGKEYKCKVSNKALPAPIEKTISKAKGQPREPQVYTLPPSRCELTKNQVSLSCAVKGFYPSDIAVEWESNGQPENNYKTTPPVLDSDGSFFLVSKLTVDKSRWQQGNVFSCSVMHEALHNHYTQKSLSLSPDYKDDDDK
chain: EPKSSDKTHTCPPCPAPELLGGPSVFLFPPKPKDTLMISRTPEVTCVVVDVSHEDPEVKFNWYVDGVEVHNAKTKPREEQYNSTYRVVSVLTVLHQDWLNGKEYKCKVSNKALPAPIEKTISKAKGQPREPQVCTLPPSRDELTKNQVSLWCLVKGFYPSDIAVEWESNGQPENNYKTTPPVLDSDGSFFLYSKLTVDKSRWQQGNVFSCSVMHEALHNRYTQKSLSLSP
light: DIVMTQSPLSLPVTPGEPASISCRSSQSPVHSNRNTYIQWYLQKPGQSPQLLIYKVSNRFSGVPDRFSGSGSGTDFTLKISRVEAEDVGVYYCYQGTQVPYTFGQGTKLEIKRTVAAPSVFIFPPSDEQLKSGTASVVCLLNNFYPREAKVQWKVDNALQSGNSQESVTEQDSKDSTYSLSSTLTLSKADYEKHKVYACEVTHQGLSSPVTKSFNRGEC
notes: as for B1
Consider B2, for which binding was characterised by a dissociation constant (Kd) of 109 nM. The Kd values of the last two molecules are within 1.5-fold of each other.

B3: TR01H082-E22Hh/none-Hi-Kn010G3/L0272-k0 (antibody, human IgG1, kappa, L234A L235A, N297A)
heavy: QVQLVESGGGLVQPGRSLRLSCAASGFTFSNAWMHWVRQAPGKGLEWVAQIKDKSQNYATYYAESVKGRFTISRDDSKNSLYLQMNSLKTEDTAVYYCRYVHYAAGYGVDAWGQGTTVTVSSASTKGPSVFPLAPSSKSTSGGTAALGCLVKDYFPEPVTVSWNSGALTSGVHTFPAVLQSSGLYSLSSVVTVPSSSLGTQTYICNVNHKPSNTKVDKKVEPKSCDKTHTCPPCPAPEAAGGPSVFLFPPKPKDTLMISRTPEVTCVVVDVSHEDPEVKFNWYVDGVEVHNAKTKPREEQYASTYRVVSVLTVLHQDWLNGKEYKCKVSNKALPAPIEKTISKAKGQPREPQVYTLPPSRCELTKNQVSLSCAVKGFYPSDIAVEWESNGQPENNYKTTPPVLDSDGSFFLVSKLTVDKSRWQQGNVFSCSVMHEALHNHYTQKSLSLSPDYKDDDDK
chain: EPKSSDKTHTCPPCPAPELLGGPSVFLFPPKPKDTLMISRTPEVTCVVVDVSHEDPEVKFNWYVDGVEVHNAKTKPREEQYNSTYRVVSVLTVLHQDWLNGKEYKCKVSNKALPAPIEKTISKAKGQPREPQVCTLPPSRDELTKNQVSLWCLVKGFYPSDIAVEWESNGQPENNYKTTPPVLDSDGSFFLYSKLTVDKSRWQQGNVFSCSVMHEALHNRYTQKSLSLSP
light: DIVMTQSPLSLPVTPGEPASISCRSSQPLVHSNRQTYLHWYQQKPGQAPRLLIYKVSNRFSGVPDRFSGSGSGTDFTLKISRVEAEDVGVYYCGQGTQVPYTFGQGTKLEIKRTVAAPSVFIFPPSDEQLKSGTASVVCLLNNFYPREAKVQWKVDNALQSGNSQESVTEQDSKDSTYSLSSTLTLSKADYEKHKVYACEVTHQGLSSPVTKSFNRGEC
notes: as for B1
In turn, B3 came in with a Kd of 74.4 nM.

B4: TR01H090-E22Hh/none-Hi-Kn010G3/L0011-k0 (antibody, human IgG1, kappa, L234A L235A, N297A)
heavy: QVQLVESGGGLVQPGGSLRLSCAASGFTFSNAWMHWVRQAPGKGLEWVAQIKDKSQNYATYYAESVKGRFTISRDDSKNSLYLQMNSLKTEDTAVYYCRYVHYAAGYGVDAWGQGTTVTVSSASTKGPSVFPLAPSSKSTSGGTAALGCLVKDYFPEPVTVSWNSGALTSGVHTFPAVLQSSGLYSLSSVVTVPSSSLGTQTYICNVNHKPSNTKVDKKVEPKSCDKTHTCPPCPAPEAAGGPSVFLFPPKPKDTLMISRTPEVTCVVVDVSHEDPEVKFNWYVDGVEVHNAKTKPREEQYASTYRVVSVLTVLHQDWLNGKEYKCKVSNKALPAPIEKTISKAKGQPREPQVYTLPPSRCELTKNQVSLSCAVKGFYPSDIAVEWESNGQPENNYKTTPPVLDSDGSFFLVSKLTVDKSRWQQGNVFSCSVMHEALHNHYTQKSLSLSPDYKDDDDK
chain: EPKSSDKTHTCPPCPAPELLGGPSVFLFPPKPKDTLMISRTPEVTCVVVDVSHEDPEVKFNWYVDGVEVHNAKTKPREEQYNSTYRVVSVLTVLHQDWLNGKEYKCKVSNKALPAPIEKTISKAKGQPREPQVCTLPPSRDELTKNQVSLWCLVKGFYPSDIAVEWESNGQPENNYKTTPPVLDSDGSFFLYSKLTVDKSRWQQGNVFSCSVMHEALHNRYTQKSLSLSP
light: DIVMTQSPLSLPVTPGEPASISCRSSQPLVHSNRNTYLHWYQQKPGQAPRLLIYKVSNRFSGVPDRFSGSGSGTDFTLKISRVEAEDVGVYYCGQGTQVPYTFGQGTKLEIKRTVAAPSVFIFPPSDEQLKSGTASVVCLLNNFYPREAKVQWKVDNALQSGNSQESVTEQDSKDSTYSLSSTLTLSKADYEKHKVYACEVTHQGLSSPVTKSFNRGEC
notes: as for B1
With B4, binding was put at a Kd of 69.5 nM.

B5: TR01H082-E22Hh/none-Hi-Kn010G3/TR01L020-k0 (antibody, human IgG1, kappa, L234A L235A, N297A)
heavy: QVQLVESGGGLVQPGRSLRLSCAASGFTFSNAWMHWVRQAPGKGLEWVAQIKDKSQNYATYYAESVKGRFTISRDDSKNSLYLQMNSLKTEDTAVYYCRYVHYAAGYGVDAWGQGTTVTVSSASTKGPSVFPLAPSSKSTSGGTAALGCLVKDYFPEPVTVSWNSGALTSGVHTFPAVLQSSGLYSLSSVVTVPSSSLGTQTYICNVNHKPSNTKVDKKVEPKSCDKTHTCPPCPAPEAAGGPSVFLFPPKPKDTLMISRTPEVTCVVVDVSHEDPEVKFNWYVDGVEVHNAKTKPREEQYASTYRVVSVLTVLHQDWLNGKEYKCKVSNKALPAPIEKTISKAKGQPREPQVYTLPPSRCELTKNQVSLSCAVKGFYPSDIAVEWESNGQPENNYKTTPPVLDSDGSFFLVSKLTVDKSRWQQGNVFSCSVMHEALHNHYTQKSLSLSPDYKDDDDK
chain: EPKSSDKTHTCPPCPAPELLGGPSVFLFPPKPKDTLMISRTPEVTCVVVDVSHEDPEVKFNWYVDGVEVHNAKTKPREEQYNSTYRVVSVLTVLHQDWLNGKEYKCKVSNKALPAPIEKTISKAKGQPREPQVCTLPPSRDELTKNQVSLWCLVKGFYPSDIAVEWESNGQPENNYKTTPPVLDSDGSFFLYSKLTVDKSRWQQGNVFSCSVMHEALHNRYTQKSLSLSP
light: DIVMTQSPLSLPVTPGEPASISCQASESPVHSNRNTYIQWYLQKPGQSPQLLIYKVSNRFSGVPDRFSGSGSGTDFTLKISRVEAEDVGVYYCYQGTQVPYTFGQGTKLEIKRTVAAPSVFIFPPSDEQLKSGTASVVCLLNNFYPREAKVQWKVDNALQSGNSQESVTEQDSKDSTYSLSSTLTLSKADYEKHKVYACEVTHQGLSSPVTKSFNRGEC
notes: as for B1
As to B5, the Kd amounted to 106 nM.

B6: TR01H082-E22Hh/none-Hi-Kn010G3/L0271-k0 (antibody, human IgG1, kappa, L234A L235A, N297A)
heavy: QVQLVESGGGLVQPGRSLRLSCAASGFTFSNAWMHWVRQAPGKGLEWVAQIKDKSQNYATYYAESVKGRFTISRDDSKNSLYLQMNSLKTEDTAVYYCRYVHYAAGYGVDAWGQGTTVTVSSASTKGPSVFPLAPSSKSTSGGTAALGCLVKDYFPEPVTVSWNSGALTSGVHTFPAVLQSSGLYSLSSVVTVPSSSLGTQTYICNVNHKPSNTKVDKKVEPKSCDKTHTCPPCPAPEAAGGPSVFLFPPKPKDTLMISRTPEVTCVVVDVSHEDPEVKFNWYVDGVEVHNAKTKPREEQYASTYRVVSVLTVLHQDWLNGKEYKCKVSNKALPAPIEKTISKAKGQPREPQVYTLPPSRCELTKNQVSLSCAVKGFYPSDIAVEWESNGQPENNYKTTPPVLDSDGSFFLVSKLTVDKSRWQQGNVFSCSVMHEALHNHYTQKSLSLSPDYKDDDDK
chain: EPKSSDKTHTCPPCPAPELLGGPSVFLFPPKPKDTLMISRTPEVTCVVVDVSHEDPEVKFNWYVDGVEVHNAKTKPREEQYNSTYRVVSVLTVLHQDWLNGKEYKCKVSNKALPAPIEKTISKAKGQPREPQVCTLPPSRDELTKNQVSLWCLVKGFYPSDIAVEWESNGQPENNYKTTPPVLDSDGSFFLYSKLTVDKSRWQQGNVFSCSVMHEALHNRYTQKSLSLSP
light: DIVMTQSPLSLPVTPGEPASISCRSSQPPVHSNRQTYLHWYQQKPGQAPRLLIYKVSNRFSGVPDRFSGSGSGTDFTLKISRVEAEDVGVYYCGQGTQVPYTFGQGTKLEIKRTVAAPSVFIFPPSDEQLKSGTASVVCLLNNFYPREAKVQWKVDNALQSGNSQESVTEQDSKDSTYSLSSTLTLSKADYEKHKVYACEVTHQGLSSPVTKSFNRGEC
notes: as for B1
Molecule B6 displayed a Kd of 68.2 nM.

Broadly, the Kd is the constant that tells how readily two partners part at equilibrium.
